This is an account of results in patent publication EP4582453A1 (Cichlid Inc., dated 2025).

The target in this test is T1, human CTLA-4 protein overexpressed in the HEK293 cell line (human, UniProt P16410 36-223).
T1 construct: whole, on cells; also called CTLA-4/HEK293 cell line; CTLA-4 expressing cell line
T1 sequence (looked up): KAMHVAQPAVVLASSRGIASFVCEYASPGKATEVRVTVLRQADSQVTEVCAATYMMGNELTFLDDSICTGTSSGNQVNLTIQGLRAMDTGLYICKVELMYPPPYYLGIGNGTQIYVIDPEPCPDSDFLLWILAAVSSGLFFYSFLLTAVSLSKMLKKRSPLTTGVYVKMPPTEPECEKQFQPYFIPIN
Nature of the test: cell ELISA of HA-tagged scFv extract on CTLA-4-expressing HEK293 cells, anti-HA HRP. For orientation: ELISA stands for enzyme-linked immunosorbent assay.

B1: 4B6 scFv (scFv, V domains shown)
VH: EVQLLESGGGLVQPGGSLRLSCAASGFTFSGYSMSWVRQAPGKGLEWVSSISPSGGNTYYADSVKGRFTISRDNSKNTLYLQMNSLRAEDTAVYYCAKTSELFDYWGQGTLVTVSS
VL: QSVLTQPPSASGTPGQRVTISCTGSSSNIGSNDVNWYQQLPGTAPKLLIYNDSHRPSGVPDRFSGSKSGTSASLAISGLRSEDEADYYCGTWDYSLSAYVFGGGTKLTV
notes: HA-tagged scFv
With B1, the binding result is given as “binds”.

B2: 3E4 scFv (scFv, V domains shown)
VH: EVQLLESGGGLVQPGGSLRLSCAASGFTFSNYAMSWVRQAPGKGLEWVSVIYYDGSNKYYADSVKGRFTISRDNSKNTLYLQMNSLRAEDTAVYYCARNTYRFDYWGQGTLVTVSS
VL: QSVLTQPPSASGTPGQRVTISCSGSSSNIGNNAVTWYQQLPGTAPKLLIYSDSNRPSGVPDRFSGSKSGTSASLAISGLRSEDEADYYCGSWDSSLSGYVFGGGTKLTVL
notes: HA-tagged scFv from a synthetic human scFv phage library, tested as an E. coli extract; VH and VL form one chain in the scFv
For the molecule B2, the binding result is “binds”.
